Data from the supplement of paper PMC5998384.

Assays:
HeLa Kyoto [1] = assay: thermal stability score vs G1/S (z-score of summed log2 fold changes over temperatures); higher = more thermally stable than in G1/S
HeLa Kyoto [2] = assay: solubility change mitosis vs G1/S (difference of NP-40 vs SDS log2 ratios) (log2 ratio difference); higher = more soluble in mitosis
HeLa Kyoto [3] = assay: melting temperature (median over replicates), in situ; higher = more thermally stable
HeLa Kyoto [4] = assay: solubility in G1/S (NP-40 vs SDS abundance) (log2 ratio); higher = more soluble; details: cell cycle stage: G1/S
[5] = cell cycle stage: early G1 (4.5 h after nocodazole release)
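Wherever melting temperature (median over replicates), in situ is given: HeLa Kyoto cells synchronized by double thymidine or nocodazole block, proteins quantified by TMT10plex mass spectrometry, three independent biological replicates.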
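Wherever solubility change mitosis vs G1/S (difference of NP-40 vs SDS log2 ratios) is given: synchronized HeLa Kyoto cells (double thymidine block for G1/S, nocodazole release for mitosis), protein amounts in NP-40 versus SDS lysates quantified by mass spectrometry, three biological replicates.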
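Wherever solubility in G1/S (NP-40 vs SDS abundance) is given: HeLa Kyoto cells arrested at G1/S by double thymidine block, proteins quantified by TMT10plex mass spectrometry in mild NP-40 versus SDS extracts, three biological replicates.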
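Wherever thermal stability score vs G1/S (z-score of summed log2 fold changes over temperatures) is given: synchronized HeLa Kyoto cells, proteins quantified by TMT10plex mass spectrometry, three biological replicates, mitosis taken 0.5 h after nocodazole release, G1/S directly after double thymidine block.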

Chain of TANC2 (chain, as listed by the source): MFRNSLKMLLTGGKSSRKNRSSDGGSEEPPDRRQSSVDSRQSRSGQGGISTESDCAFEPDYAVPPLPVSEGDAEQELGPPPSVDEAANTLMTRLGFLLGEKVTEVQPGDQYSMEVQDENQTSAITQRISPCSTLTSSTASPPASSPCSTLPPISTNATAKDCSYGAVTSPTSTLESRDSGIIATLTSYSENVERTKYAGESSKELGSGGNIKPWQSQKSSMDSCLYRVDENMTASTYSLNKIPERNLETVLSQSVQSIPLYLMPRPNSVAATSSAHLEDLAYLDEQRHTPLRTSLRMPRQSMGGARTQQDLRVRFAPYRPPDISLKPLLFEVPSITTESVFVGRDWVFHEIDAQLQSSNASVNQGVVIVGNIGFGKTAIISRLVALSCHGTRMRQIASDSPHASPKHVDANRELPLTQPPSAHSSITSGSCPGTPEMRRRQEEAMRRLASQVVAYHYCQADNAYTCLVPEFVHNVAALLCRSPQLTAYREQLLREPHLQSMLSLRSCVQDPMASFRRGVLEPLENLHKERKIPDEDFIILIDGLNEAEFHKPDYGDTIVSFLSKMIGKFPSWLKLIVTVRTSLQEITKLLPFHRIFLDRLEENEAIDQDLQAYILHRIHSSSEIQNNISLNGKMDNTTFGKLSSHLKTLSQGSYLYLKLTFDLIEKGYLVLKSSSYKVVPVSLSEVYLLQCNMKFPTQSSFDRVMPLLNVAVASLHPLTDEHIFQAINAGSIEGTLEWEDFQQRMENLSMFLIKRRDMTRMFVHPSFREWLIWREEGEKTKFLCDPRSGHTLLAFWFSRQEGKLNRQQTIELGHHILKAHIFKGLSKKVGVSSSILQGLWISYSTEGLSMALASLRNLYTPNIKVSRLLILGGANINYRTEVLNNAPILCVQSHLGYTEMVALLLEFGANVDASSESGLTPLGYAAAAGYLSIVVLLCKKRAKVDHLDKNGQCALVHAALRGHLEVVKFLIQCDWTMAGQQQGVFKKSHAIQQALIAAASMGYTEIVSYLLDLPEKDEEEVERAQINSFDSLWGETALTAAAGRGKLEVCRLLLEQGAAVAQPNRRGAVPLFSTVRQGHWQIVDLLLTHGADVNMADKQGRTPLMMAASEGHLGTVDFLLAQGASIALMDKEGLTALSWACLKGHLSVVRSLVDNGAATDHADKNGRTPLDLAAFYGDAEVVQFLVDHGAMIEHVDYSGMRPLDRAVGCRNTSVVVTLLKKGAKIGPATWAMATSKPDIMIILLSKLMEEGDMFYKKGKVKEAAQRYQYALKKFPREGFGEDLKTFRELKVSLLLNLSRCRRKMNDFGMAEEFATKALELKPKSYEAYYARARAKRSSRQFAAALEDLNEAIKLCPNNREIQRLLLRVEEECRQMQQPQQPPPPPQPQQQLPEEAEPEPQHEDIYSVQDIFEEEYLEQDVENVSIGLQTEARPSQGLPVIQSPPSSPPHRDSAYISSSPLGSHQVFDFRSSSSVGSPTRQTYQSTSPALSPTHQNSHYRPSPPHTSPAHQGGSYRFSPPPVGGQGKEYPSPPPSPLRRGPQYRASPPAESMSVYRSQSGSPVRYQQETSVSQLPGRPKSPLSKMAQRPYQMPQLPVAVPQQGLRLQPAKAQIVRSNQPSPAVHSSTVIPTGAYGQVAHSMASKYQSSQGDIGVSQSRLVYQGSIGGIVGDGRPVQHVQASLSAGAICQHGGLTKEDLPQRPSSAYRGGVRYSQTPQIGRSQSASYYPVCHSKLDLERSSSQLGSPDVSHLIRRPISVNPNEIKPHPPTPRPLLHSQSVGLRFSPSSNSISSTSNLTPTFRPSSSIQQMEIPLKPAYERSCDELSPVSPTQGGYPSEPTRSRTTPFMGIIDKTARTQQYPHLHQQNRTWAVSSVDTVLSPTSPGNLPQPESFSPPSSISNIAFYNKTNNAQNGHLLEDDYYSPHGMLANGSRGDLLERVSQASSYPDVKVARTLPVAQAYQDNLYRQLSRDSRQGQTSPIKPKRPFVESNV
Chain of FXR1 (chain, as listed by the source): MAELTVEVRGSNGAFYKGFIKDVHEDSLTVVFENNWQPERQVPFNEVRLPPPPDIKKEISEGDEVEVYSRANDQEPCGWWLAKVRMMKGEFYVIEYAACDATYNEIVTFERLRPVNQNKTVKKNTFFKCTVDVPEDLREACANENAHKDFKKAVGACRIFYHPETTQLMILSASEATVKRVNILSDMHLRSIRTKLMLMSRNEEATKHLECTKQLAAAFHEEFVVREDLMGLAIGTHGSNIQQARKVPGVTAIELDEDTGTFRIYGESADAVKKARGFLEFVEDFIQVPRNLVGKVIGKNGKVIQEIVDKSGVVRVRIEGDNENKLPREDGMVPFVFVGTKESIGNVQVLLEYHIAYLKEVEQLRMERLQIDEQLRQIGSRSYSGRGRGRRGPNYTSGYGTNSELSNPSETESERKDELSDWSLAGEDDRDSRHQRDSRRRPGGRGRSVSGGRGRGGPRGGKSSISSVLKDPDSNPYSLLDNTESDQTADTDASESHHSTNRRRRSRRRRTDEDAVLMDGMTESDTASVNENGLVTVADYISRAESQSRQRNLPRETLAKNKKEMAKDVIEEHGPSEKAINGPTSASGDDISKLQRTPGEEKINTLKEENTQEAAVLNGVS

| Substance | thermal stability score (HeLa Kyoto [1]; [5]) | thermal stability score (HeLa Kyoto [1]; cell cycle stage: mitosis) | solubility change mitosis (log2) (HeLa Kyoto [2]) | melting temperature (HeLa Kyoto [3]; cell cycle stage: G1/S) [°C] | melting temperature (HeLa Kyoto [3]; cell cycle stage: mitosis) [°C] | solubility in G1/S (log2) (HeLa Kyoto [4]) |
| --- | --- | --- | --- | --- | --- | --- |
| MSLHGKRKEIYKYEAPWTVYAMNWSVRPDKRFRLALGSFVEEYNNKVQLVGLDEESSEFICRNTFDHPYPTTKLMWIPDTKGVYPDLLATSGDYLRVWRVGETETRLECLLNNNKNSDFCAPLTSFDWNEVDPYLLGTSSIDTTCTIWGLETGQVLGRVNLVSGHVKTQLIAHDKEVYDIAFSRAGGGRDMFASVGADGSVRMFDLRHLEHSTIIYEDPQHHPLLRLCWNKQDPNYLATMAMDGMEVVILDVRVPCTPVARLNNHRACVNGIAWAPHSSCHICTAADDHQALIWDIQQMPRAIEDPILAYTAEGEINNVQWASTQPDWIAICYNNCLEILRV [DCAF7] | 0.282 | -1.1 | -0.147 | 52.2 | 52.5 | -0.0563 |
| MSLKPRVVDFDETWNKLLTTIKAVVMLEYVERATWNDRFSDIYALCVAYPEPLGERLYTETKIFLENHVRHLHKRVLESEEQVLVMYHRYWEEYSKGADYMDCLYRYLNTQFIKKNKLTEADLQYGYGGVDMNEPLMEIGELALDMWRKLMVEPLQAILIRMLLREIKNDRGGEDPNQKVIHGVINSFVHVEQYKKKFPLKFYQEIFESPFLTETGEYYKQEASNLLQESNCSQYMEKVLGRLKDEEIRCRKYLHPSSYTKVIHECQQRMVADHLQFLHAECHNIIRQEKKNDMANMYVLLRAVSTGLPHMIQELQNHIHDEGLRATSNLTQENMPTLFVESVLEVHGKFVQLINTVLNGDQHFMSALDKALTSVVNYREPKSVCKAPELLAKYCDNLLKKSAKGMTENEVEDRLTSFITVFKYIDDKDVFQKFYARMLAKRLIHGLSMSMDSEEAMINKLKQACGYEFTSKLHRMYTDMSVSADLNNKFNNFIKNQDTVIDLGISFQIYVLQAGAWPLTQAPSSTFAIPQELEKSVQMFELFYSQHFSGRKLTWLHYLCTGEVKMNYLGKPYVAMVTTYQMAVLLAFNNSETVSYKELQDSTQMNEKELTKTIKSLLDVKMINHDSEKEDIDAESSFSLNMNFSSKRTKFKITTSMQKDTPQEMEQTRSAVDEDRKMYLQAAIVRIMKARKVLRHNALIQEVISQSRARFNPSISMIKKCIEVLIDKQYIERSQASADEYSYVA [CUL2] | -0.0958 | -0.6 | -0.148 | 54.1 | 53.6 | -0.219 |
| MKDVPGFLQQSQNSGPGQPAVWHRLEELYTKKLWHQLTLQVLDFVQDPCFAQGDGLIKLYENFISEFEHRVNPLSLVEIILHVVRQMTDPNVALTFLEKTREKVKSSDEAVILCKTAIGALKLNIGDLQVTKETIEDVEEMLNNLPGVTSVHSRFYDLSSKYYQTIGNHASYYKDALRFLGCVDIKDLPVSEQQERAFTLGLAGLLGEGVFNFGELLMHPVLESLRNTDRQWLIDTLYAFNSGNVERFQTLKTAWGQQPDLAANEAQLLRKIQLLCLMEMTFTRPANHRQLTFEEIAKSAKITVNEVELLVMKALSVGLVKGSIDEVDKRVHMTWVQPRVLDLQQIKGMKDRLEFWCTDVKSMEMLVEHQAHDILT [PSMD13] | 1.44 | 2.56 | -0.181 | 53.2 | 51.3 | 0.0175 |
| MAAAGAFRLRRAASALLLRSPRLPARELSAPARLYHKKVVDHYENPRNVGSLDKTSKNVGTGLVGAPACGDVMKLQIQVDEKGKIVDARFKTFGCGSAIASSSLATEWVKGKTVEEALTIKNTDIAKELCLPPVKLHCSMLAEDAIKAALADYKLKQEPKKGEAEKK [ISCU] | -1.67 | -2.36 | 0.0125 | 53.3 | 54 | 0.467 |
| MKLNVDGLLVYFPYDYIYPEQFSYMRELKRTLDAKGHGVLEMPSGTGKTVSLLALIMAYQRAYPLEVTKLIYCSRTVPEIEKVIEELRKLLNFYEKQEGEKLPFLGLALSSRKNLCIHPEVTPLRFGKDVDGKCHSLTASYVRAQYQHDTSLPHCRFYEEFDAHGREVPLPAGIYNLDDLKALGRRQGWCPYFLARYSILHANVVVYSYHYLLDPKIADLVSKELARKAVVVFDEAHNIDNVCIDSMSVNLTRRTLDRCQGNLETLQKTVLRIKETDEQRLRDEYRRLVEGLREASAARETDAHLANPVLPDEVLQEAVPGSIRTAEHFLGFLRRLLEYVKWRLRVQHVVQESPPAFLSGLAQRVCIQRKPLRFCAERLRSLLHTLEITDLADFSPLTLLANFATLVSTYAKGFTIIIEPFDDRTPTIANPILHFSCMDASLAIKPVFERFQSVIITSGTLSPLDIYPKILDFHPVTMATFTMTLARVCLCPMIIGRGNDQVAISSKFETREDIAVIRNYGNLLLEMSAVVPDGIVAFFTSYQYMESTVASWYEQGILENIQRNKLLFIETQDGAETSVALEKYQEACENGRGAILLSVARGKVSEGIDFVHHYGRAVIMFGVPYVYTQSRILKARLEYLRDQFQIRENDFLTFDAMRHAAQCVGRAIRGKTDYGLMVFADKRFARGDKRGKLPRWIQEHLTDANLNLTVDEGVQVAKYFLRQMAQPFHREDQLGLSLLSLEQLESEETLKRIEQIAQQL [ERCC2] | 1 | 2.34 | -0.0825 | 48.9 | 49.1 | -0.193 |
| MAAPRPSPAISVSVSAPAFYAPQKKFGPVVAPKPKVNPFRPGDSEPPPAPGAQRAQMGRVGEIPPPPPEDFPLPPPPLAGDGDDAEGALGGAFPPPPPPIEESFPPAPLEEEIFPSPPPPPEEEGGPEAPIPPPPQPREKVSSIDLEIDSLSSLLDDMTKNDPFKARVSSGYVPPPVATPFSSKSSTKPAAGGTAPLPPWKSPSSSQPLPQVPAPAQSQTQFHVQPQPQPKPQVQLHVQSQTQPVSLANTQPRGPPASSPAPAPKFSPVTPKFTPVASKFSPGAPGGSGSQPNQKLGHPEALSAGTGSPQPPSFTYAQQREKPRVQEKQHPVPPPAQNQNQVRSPGAPGPLTLKEVEELEQLTQQLMQDMEHPQRQNVAVNELCGRCHQPLARAQPAVRALGQLFHIACFTCHQCAQQLQGQQFYSLEGAPYCEGCYTDTLEKCNTCGEPITDRMLRATGKAYHPHCFTCVVCARPLEGTSFIVDQANRPHCVPDYHKQYAPRCSVCSEPIMPEPGRDETVRVVALDKNFHMKCYKCEDCGKPLSIEADDNGCFPLDGHVLCRKCHTARAQT [ZYX] | -1.65 | 0.522 | -0.128 | 55.9 | 65.5 | 0.412 |
| MASSCAVQVKLELGHRAQVRKKPTVEGFTHDWMVFVRGPEHSNIQHFVEKVVFHLHESFPRPKRVCKDPPYKVEESGYAGFILPIEVYFKNKEEPRKVRFDYDLFLHLEGHPPVNHLRCEKLTFNNPTEDFRRKLLKAGGDPNRSIHTSSSSSSSSSSSSSSSSSSSSSSSSSSSSSSSSSSSSSSSSSSTSFSKPHKLMKEHKEKPSKDSREHKSAFKEPSRDHNKSSKESSKKPKENKPLKEEKIVPKMAFKEPKPMSKEPKPDSNLLTITSGQDKKAPSKRPPISDSEELSAKKRKKSSSEALFKSFSSAPPLILTCSADKKQIKDKSHVKMGKVKIESETSEKKKSTLPPFDDIVDPNDSDVEENISSKSDSEQPSPASSSSSSSSSFTPSQTRQQGPLRSIMKDLHSDDNEEESDEVEDNDNDSEMERPVNRGGSRSRRVSLSDGSDSESSSASSPLHHEPPPPLLKTNNNQILEVKSPIKQSKSDKQIKNGECDKAYLDELVELHRRLMTLRERHILQQIVNLIEETGHFHITNTTFDFDLCSLDKTTVRKLQSYLETSGTS [MLLT3] | -0.0552 | 0.557 | 0.411 | 48.5 | 50.5 | -0.355 |
| MTELQQDVEDTKPAKVLGKRESKLGSAHSEAENGVEEKKKACRSPTAQSPTPSVEADSPDQKKIISLWSKSSFDGASLASDKNDCKTESKNDPKTERKKSSSSSQYKANMHFHKLFLSVPTEEPLKQSFTCALQKEILYQGKLFVSENWICFHSKVFGKDTKISIPAFSVTLIKKTKTALLVPNALIIATVTDRYIFVSLLSRDSTYKLLKSVCGHLENTSVGNSPNPSSAENSFRADRPSSLPLDFNDEFSDLDGVVQQRRQDMEGYSSSGSQTPESENSRDFHATESQTVLNVSKGEAKPTRADAHVNRVPEGKAKSLPVQGLSETVGILHKVKSQKCPMLHHILIFYAIVVCALIISTFYMRYRINTLEEQLGLLTSIVDTHNTEQAAPSGLRSQVQFNVEVLCQELTANIVKLEKIQNNLQKLLENGD [GRAMD3] | -0.258 | 1.75 | -0.244 | 49.3 | 51 | 0.0879 |
| MAPSSPRPALPALLVLLGALFPGPGNAQTSVSPSKVILPRGGSVLVTCSTSCDQPKLLGIETPLPKKELLLPGNNRKVYELSNVQEDSQPMCYSNCPDGQSTAKTFLTVYWTPERVELAPLPSWQPVGKNLTLRCQVEGGAPRANLTVVLLRGEKELKREPAVGEPAEVTTTVLVRRDHHGANFSCRTELDLRPQGLELFENTSAPYQLQTFVLPATPPQLVSPRVLEVDTQGTVVCSLDGLFPVSEAQVHLALGDQRLNPTVTYGNDSFSAKASVSVTAEDEGTQRLTCAVILGNQSQETLQTVTIYSFPAPNVILTKPEVSEGTEVTVKCEAHPRAKVTLNGVPAQPLGPRAQLLLKATPEDNGRSFSCSATLEVAGQLIHKNQTRELRVLYGPRLDERDCPGNWTWPENSQQTPMCQAWGNPLPELKCLKDGTFPLPIGESVTVTRDLEGTYLCRARSTQGEVTRKVTVNVLSPRYEIVIITVVAAAVIMGTAGLSTYLYNRQRKIKKYRLQQAQKGTPMKPNTQATPP [ICAM1] | -2.15 | -2.19 | 0.0971 | 56.7 | 58.8 | 0.303 |
| MVLWILWRPFGFSGRFLKLESHSITESKSLIPVAWTSLTQMLLEAPGIFLLGQRKRFSTMPETETHERETELFSPPSDVRGMTKLDRTAFKKTVNIPVLKVRKEIVSKLMRSLKRAALQRPGIRRVIEDPEDKESRLIMLDPYKIFTHDSFEKAELSVLEQLNVSPQISKYNLELTYEHFKSEEILRAVLPEGQDVTSGFSRIGHIAHLNLRDHQLPFKHLIGQVMIDKNPGITSAVNKINNIDNMYRNFQMEVLSGEQNMMTKVRENNYTYEFDFSKVYWNPRLSTEHSRITELLKPGDVLFDVFAGVGPFAIPVAKKNCTVFANDLNPESHKWLLYNCKLNKVDQKVKVFNLDGKDFLQGPVKEELMQLLGLSKERKPSVHVVMNLPAKAIEFLSAFKWLLDGQPCSSEFLPIVHCYSFSKDANPAEDVRQRAGAVLGISLEACSSVHLVRNVAPNKEMLCITFQIPASVLYKNQTRNPENHEDPPLKRQRTAEAFSDEKTQIVSNT [TRMT5] | -0.613 | -0.00215 | -0.0856 | 57.7 | 56.1 | 0.289 |
| MGTDSRAAKALLARARTLHLQTGNLLNWGRLRKKCPSTHSEELHDCIQKTLNEWSSQINPDLVREFPDVLECTVSHAVEKINPDEREEMKVSAKLFIVESNSSSSTRSAVDMACSVLGVAQLDSVIIASPPIEDGVNLSLEHLQPYWEELENLVQSKKIVAIGTSDLDKTQLEQLYQWAQVKPNSNQVNLASCCVMPPDLTAFAKQFDIQLLTHNDPKELLSEASFQEALQESIPDIQAHEWVPLWLLRYSVIVKSRGIIKSKGYILQAKRRGS [GCLM] | 0.373 | 1.08 | -0.0843 | 48.3 | 49 | 0.229 |
| TANC2 | 0.0704 | 0.122 | -0.0218 |  | 50.3 | 0.222 |
| FXR1 | -2.47 | 2.23 | 0.215 | 50.3 | 50.8 | -0.859 |
